Patent US7629169B2, “Methods for the production of platelet-derived growth factor-responsive neural precursor cells” (Stem Cell Therapeutics Corp., priority 2004, dated 2009)

What was measured:
[1] = test system: PDGF-responsive neural precursors (PRPs) from dissociated E14 MGE/LGE; test: Primary neurosphere generation from dissociated E14 ganglionic eminences; assay type: cell-based, mouse; conditions: for neurosphere size / number of neurospheres produced: neurotrophin in the presence of PDGF
Procedure: Cell culture. The culture medium (MHM) was composed of DMEM/F-12 (1:1) including HEPES buffer (5 mM), glucose (0.6%), sodium bicarbonate (3 mM), glutamine (2 mM), insulin (25 μg/ml), transferrin (100 μg/ml), progesterone (20 nM), putrescine (10 μM), and sodium selenite (30 nM; all from Sigma, St. Louis, Mo., except glutamine from Invitrogen, Carlsbad, Calif.). The lateral, medial, or both ganglionic eminences (LGE, MGE or both) were removed from Embryonic Day 14 (E14) mouse embryos and mechanically dissociated with a fire-polished Pasteur pipette in MHM. Cells were plated at a density of […] unless otherwise indicated.
For neurosphere generation, PDGF-AA (100 ng/ml; Peprotech, Rocky Hill, N.J.), PDGF-BB (100 ng/ml; Peprotech), EGF (20 ng/ml; Peprotech), FGF2 (20 ng/ml; R&D [Minneapolis, Minn.])+heparan sulfate (2 μg/ml; HS; R&D), SHH (2 ug/ml; R&D), cyclopamine (5 μM; Toronto Research Chemicals, North York, Ontario), and/or DMSO (0.1%; carrier) was added to the MHM. MHM used to generate neurospheres also contained 2% B27 (Invitrogen).
[…] is one of the earliest markers of OLPs, and signaling by PDGF-AA is required for the generation of most oligodendrocytes (Fruttiger et al., Development 126:457 (1999)). Increasing concentrations of PDGF-AA were used to determine whether stimulation of dissociated E14 medial and lateral ganglionic eminences. (MGE and LGE, respectively) results in generation of neurospheres. The neurosphere assay was used because manipulation of primary cells is minimal compared to the immunopanning procedures used to isolate O-2A progenitors.
The effect of brain-derived neurotrophic factor (BDNF), neurotrophin-3 (NT-3), and nerve growth factor (NGF) on PRPs was determined. Cells were cultured as previously reported (Chojnacki et al., J Neurosci 24(48):10888 2004) in the presence of various combinations of PDGF, brain-derived neurotrophic factor (BDNF), NT-3, nerve growth factor (NGF), and the effects on neurosphere generation characterized. MHM is the defined medium used in cultures without growth factor.

[2] = test system: PDGF-generated neurospheres; test: Differentiation of primary PDGF-AA-generated neurospheres, immunocytochemistry; assay type: cell-based, mouse
[3] = test system: PDGFRα-labeled cells (PRPs); test: PDGFRα and Tunel staining of dissociated primary cells, 24 hours; assay type: cell-based
Procedure: Dissociated primary cells were cultured in 24-well plates with or without NT-3 for 24 hours, stained for PDGFRα and Tunel, and the number of labeled cells counted.

B1: BDNF: brain-derived neurotrophic factor (protein, UniProt P23560 19-247, looked up)
Neurotrophic factor BDNF …: APMKEANIRGQGGLAYPGVRTHGTLESVNGPKAGSRGLTSLADTFEHVIEELLDEDQKVRPNEENNKDADLYTSRVMLSSQVPLEPPLLFLLEEYKNYLDAANMSMRVRRHSDPARRGELSVCDSISEWVTAADKKTAVDMSGGTVTVLEKVPVSKGQLKQYFYETKCNPMGYTKEGCRGIDKRHWNSQCRTTQSYVRALTMDSKKRIGWRFIRIDTSCVCTLTIKRGR
neurosphere size [1]: promote the generation of larger neurospheres
number of neurospheres produced [1]: more neurospheres are produced

B2: CNTF: ciliary neurotrophic factor (protein, UniProt P26441 1-200, looked up)
Ciliary neurotrophic factor: MAFTEHSPLTPHRRDLCSRSIWLARKIRSDLTALTESYVKHQGLNKNINLDSADGMPVASTDQWSELTEAERLQENLQAYRTFHVLLARLLEDQQVHFTPTEGDFHQAIHTLLLQVAAFAYQIEELMILLEYKIPRNEADGMPINVGDGGLFEKKLWGLKVLQELSQWTVRSIHDLRFISSHQTGIPARGSHYIANNKKM
GFAP-immunoreactive cells (astrocytes) ([2]; 2 DIV differentiation): did not induce GFAP expression
OLIG2 / O4 expression ([2]; 6 DIV PDGF-generated neurospheres differentiated 2 DIV): no effect on OLIG2 or O4 expression

B3: NT-3: neurotrophin-3 (protein, UniProt P20783 139-257, looked up)
Neurotrophin-3: YAEHKSHRGEYSVCDSESLWVTDKSSAIDIRGHQVTVLGEIKTGNSPVKQYFYETRCKEARPVKNGCRGIDDKHWNSQCKTSQTYVRALTSENNKLVGWRWIRIDTSCVCALSRKIGRT
generation of neurospheres by timing of treatment ([1]; initial 24 hour NT-3 vs exposure after first 24 hours): more effective at promoting the generation of neurospheres than continued exposure to NT-3 after the first 24 hours
neurosphere size [1]: promote the generation of larger neurospheres
number of neurospheres produced [1]: more neurospheres are produced
Tunel and PDGFRα co-labeled cells ([3]; with or without NT-3, 24 hours): no Tunel and PDGFRα co-labeled cells were observed
PDGFRα-labeled cells ([3]; with vs without NT-3, 24 hours): more PDGFRα-labeled cells
